Source: IntAct's records for PubMed 18086875

Tests used:
[1] = target: fak2_human PTK2B (UniProt Q14289)
[2] = target: fak1_human PTK2 (UniProt Q05397)
[3] = target: pak1_human PAK1 (UniProt Q13153)
[4] = target: fak2_human PTK2B (UniProt Q14289); remark: listed apart in the source

Sequence of fak2_human PTK2B (Q14289 whole entry, looked up): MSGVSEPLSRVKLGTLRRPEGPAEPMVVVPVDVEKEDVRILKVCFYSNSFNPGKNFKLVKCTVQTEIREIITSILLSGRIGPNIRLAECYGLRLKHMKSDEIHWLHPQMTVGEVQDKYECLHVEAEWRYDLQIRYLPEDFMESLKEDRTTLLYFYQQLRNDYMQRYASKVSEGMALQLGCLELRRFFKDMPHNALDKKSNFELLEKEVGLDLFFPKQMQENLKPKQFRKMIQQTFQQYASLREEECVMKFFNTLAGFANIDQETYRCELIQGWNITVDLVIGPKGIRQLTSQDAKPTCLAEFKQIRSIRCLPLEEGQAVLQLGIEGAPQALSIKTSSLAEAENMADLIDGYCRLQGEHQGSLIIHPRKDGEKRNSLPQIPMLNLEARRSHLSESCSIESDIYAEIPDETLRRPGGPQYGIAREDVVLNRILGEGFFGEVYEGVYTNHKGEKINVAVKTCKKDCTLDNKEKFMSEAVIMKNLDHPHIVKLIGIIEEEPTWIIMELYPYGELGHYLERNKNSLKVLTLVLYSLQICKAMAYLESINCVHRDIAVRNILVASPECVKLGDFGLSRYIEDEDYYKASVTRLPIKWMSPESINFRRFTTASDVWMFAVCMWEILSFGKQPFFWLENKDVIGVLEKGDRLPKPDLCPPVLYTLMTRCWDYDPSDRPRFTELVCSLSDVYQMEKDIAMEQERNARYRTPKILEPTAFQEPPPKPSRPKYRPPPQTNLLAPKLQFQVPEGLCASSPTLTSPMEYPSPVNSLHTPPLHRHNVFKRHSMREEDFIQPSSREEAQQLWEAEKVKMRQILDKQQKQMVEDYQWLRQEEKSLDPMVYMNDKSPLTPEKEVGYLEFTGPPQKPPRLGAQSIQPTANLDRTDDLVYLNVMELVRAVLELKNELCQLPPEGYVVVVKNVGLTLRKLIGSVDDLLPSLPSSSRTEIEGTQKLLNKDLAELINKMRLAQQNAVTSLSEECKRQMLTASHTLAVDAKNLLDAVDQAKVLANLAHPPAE
Sequence of Rho-related GTP-binding protein RhoU (Homo sapiens), Q7L0Q8 F86C (Q7L0Q8 whole entry F86C): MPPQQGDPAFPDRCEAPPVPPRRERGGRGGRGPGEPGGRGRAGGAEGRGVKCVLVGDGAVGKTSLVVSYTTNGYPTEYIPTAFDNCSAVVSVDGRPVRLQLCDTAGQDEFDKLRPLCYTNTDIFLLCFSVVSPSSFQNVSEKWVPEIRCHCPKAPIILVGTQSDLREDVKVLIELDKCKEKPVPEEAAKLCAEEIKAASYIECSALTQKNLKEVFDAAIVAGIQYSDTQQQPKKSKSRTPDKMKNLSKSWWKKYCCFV
Sequence of fak1_human PTK2 (Q05397 whole entry, looked up): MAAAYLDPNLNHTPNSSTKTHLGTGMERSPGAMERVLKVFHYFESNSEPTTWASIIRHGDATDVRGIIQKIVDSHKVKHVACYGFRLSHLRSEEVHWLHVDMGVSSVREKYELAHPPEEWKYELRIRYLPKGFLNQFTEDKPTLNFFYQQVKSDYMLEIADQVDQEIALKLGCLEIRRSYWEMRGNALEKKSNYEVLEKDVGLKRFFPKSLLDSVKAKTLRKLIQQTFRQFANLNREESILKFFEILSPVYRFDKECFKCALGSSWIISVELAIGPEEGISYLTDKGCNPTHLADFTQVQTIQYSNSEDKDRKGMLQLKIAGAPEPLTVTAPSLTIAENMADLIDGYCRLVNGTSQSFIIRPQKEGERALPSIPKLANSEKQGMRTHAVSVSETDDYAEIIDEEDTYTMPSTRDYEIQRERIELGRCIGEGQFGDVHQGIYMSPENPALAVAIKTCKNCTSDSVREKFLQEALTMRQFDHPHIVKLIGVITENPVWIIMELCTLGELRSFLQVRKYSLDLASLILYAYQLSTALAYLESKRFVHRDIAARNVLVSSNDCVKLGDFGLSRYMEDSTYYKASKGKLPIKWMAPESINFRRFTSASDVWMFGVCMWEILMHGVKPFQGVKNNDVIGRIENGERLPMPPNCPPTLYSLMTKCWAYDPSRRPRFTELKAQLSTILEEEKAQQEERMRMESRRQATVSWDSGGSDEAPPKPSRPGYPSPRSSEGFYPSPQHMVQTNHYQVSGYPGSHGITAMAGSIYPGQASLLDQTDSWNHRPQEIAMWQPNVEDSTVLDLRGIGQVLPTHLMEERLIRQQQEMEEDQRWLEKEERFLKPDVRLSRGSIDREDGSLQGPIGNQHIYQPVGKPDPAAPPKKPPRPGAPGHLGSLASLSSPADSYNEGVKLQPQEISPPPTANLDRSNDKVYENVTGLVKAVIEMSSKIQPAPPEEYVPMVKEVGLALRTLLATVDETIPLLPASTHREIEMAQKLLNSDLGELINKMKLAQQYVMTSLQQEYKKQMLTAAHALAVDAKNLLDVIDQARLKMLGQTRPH
Sequence of pak1_human PAK1 (Q13153 whole entry): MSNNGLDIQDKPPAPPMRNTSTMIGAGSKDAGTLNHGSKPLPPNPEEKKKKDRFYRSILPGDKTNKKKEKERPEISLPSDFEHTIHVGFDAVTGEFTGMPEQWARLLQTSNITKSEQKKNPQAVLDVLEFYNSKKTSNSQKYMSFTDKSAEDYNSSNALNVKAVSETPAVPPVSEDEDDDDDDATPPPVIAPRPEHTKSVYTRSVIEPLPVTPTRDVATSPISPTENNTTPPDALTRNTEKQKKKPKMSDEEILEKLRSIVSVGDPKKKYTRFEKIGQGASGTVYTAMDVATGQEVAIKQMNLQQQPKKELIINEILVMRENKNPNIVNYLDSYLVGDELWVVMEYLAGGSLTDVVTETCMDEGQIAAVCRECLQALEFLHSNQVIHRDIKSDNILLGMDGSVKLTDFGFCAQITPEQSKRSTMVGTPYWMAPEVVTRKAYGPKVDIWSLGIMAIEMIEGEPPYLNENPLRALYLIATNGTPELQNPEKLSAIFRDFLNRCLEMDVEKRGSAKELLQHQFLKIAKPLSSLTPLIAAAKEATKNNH

effect of a mutation on the interaction [1] | effect of a mutation on the interaction [2] | effect of a mutation on the interaction [3] | effect of a mutation on the interaction [4] | Substance
 | decreasing interaction |  |  | Rho-related GTP-binding protein RhoU (Homo sapiens), Q7L0Q8 Q107L
 | decreasing interaction |  | disrupting interaction | Rho-related GTP-binding protein RhoU (Homo sapiens), Q7L0Q8 T63N

Further lines, the substance ahead of its results:

Substance | effect of a mutation on the interaction [1] | effect of a mutation on the interaction [2] | effect of a mutation on the interaction [3] | effect of a mutation on the interaction [4]
Rho-related GTP-binding protein RhoU (Homo sapiens), Q7L0Q8 F83G | disrupting interaction |  |  | 
Rho-related GTP-binding protein RhoU (Homo sapiens), Q7L0Q8 F86C | disrupting interaction |  | decreasing interaction | 
Rho-related GTP-binding protein RhoU (Homo sapiens), Q7L0Q8 P80G | disrupting interaction |  | decreasing interaction | 
